Measured values: paper PMC4589789, “Anti-interleukin-6 therapy through application of a monogenic protein inhibitor via gene delivery” (Scientific Reports, 2015)

Experiments:
murine IL-6 (mouse) [1] = target: murine IL-6 (mouse) (UniProt P08505)
murine IL-6 (mouse) [2] = target: murine IL-6 (mouse) (UniProt P08505); remark: listed apart in the source
[3] = target: the molecule itself; test: SDS-PAGE under non-reducing and reducing conditions; purified mIL-6-RFP-Fc on 7.5% SDS/PAGE, Coomassie staining and Western blotting; disulfide-linked dimer versus monomer

Sequence of murine IL-6 (mouse) (P08505 25-211): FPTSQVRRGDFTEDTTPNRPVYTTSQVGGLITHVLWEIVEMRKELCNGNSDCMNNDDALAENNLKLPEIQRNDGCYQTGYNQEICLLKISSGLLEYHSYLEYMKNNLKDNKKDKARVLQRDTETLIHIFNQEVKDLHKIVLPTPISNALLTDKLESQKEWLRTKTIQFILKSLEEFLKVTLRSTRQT

B1: mIL-6-RFP-Fc (murine IL-6 receptor fusion protein with engineered mIgG2a Fc-fragment and 3V5-3HA tag) (Fc fusion)
chain: QLLEPCGYIYPEFPVVQRGSNFTAICVLKEACLQHYYVNASYIVWKTNHAAVPREQVTVINRTTSSVTFTDVVLPSVQLTCNILSFGQIEQNVYGVTMLSGFPPDKPTNLTCIVNEGKNMLCQWDPGRETYLETNYTLKSEWATEKFPDCQSKHGTSCMVSYMPTYYVNIEVWVEAENALGKVSSESINFDPVDKVKPTPPYNLSVTNSEELSSILKLSWVSSGLGGLLDLKSDIQYRTKDASTWIQVPLEDTMSPRTSFTVQDLKPFTEYVFRIRSIKDSGKGYWSDWSEEASGTTYEDLVLGSCRALEVANGTVTSLPGATVTLICPGKEAAGNVTIHWVYSGSQNREWTTTGNTLVLRDVQLSDTGDYLCSLNDHLVGTVPLLVDVPPEEPKLSCFRKNPLVNAICEWRPSSTPSPTTKAVLFAKKINTTNGKSDFQVPCQYSQQLKSFSCQVEILEGDKVYHIVSLCVANSVGSKSSHNEAFHSLKMVQPDPPANLVVSAIPGRPRWLKVSWQHPETWDPSYYLLQFQLRYRPVWSKEFTVLLLPVAQYQCVIHDALRGVKHVVQVRGKEELDLGQWSEWSPEVTGTPWIPRGPTIKPCPPCKCPAPNLEGGPSVFIFPPKIKDVLMISLSPIVTCVVVDVSEDDPDVQISWFVNNVEVHTAQTQTHREDYNSTLRVVSALPIQHQDWMSGKAFACAVNNKDLPAPIERTISKPKGSVRAPQVYVLPPPEEEMTKKQVTLTCMVTDFMPEDIYVEWTNNGKTELNYKNTEPVLDSDGSYFMYSKLRVEKKNWVERNSYSCSVVHEGLHNHHTTKSFSRTPGK
Q: What does the source list for B1?
A: IC50 of inhibition of IL-6 (37 pM)-dependent proliferation of Ba/F3-mgp130/mIL-6Rα cells, serial 2-fold dilutions from 3.9 nM, XTT assay after 60 h (murine IL-6 (mouse) [1]): 3.3e-05 μM; attenuation of IL-6 (100 ng i.v.)-induced ERK1/2 phosphorylation in mouse kidney after pretreatment with mIL-6-RFP-Fc i.p. for 45 min (4, 12 or 40 μg; value for 40 μg, 70× molar excess) (murine IL-6 (mouse) [2]): 50%; attenuation of IL-6 (100 ng i.v.)-induced ERK1/2 phosphorylation in mouse liver after pretreatment with mIL-6-RFP-Fc i.p. for 45 min (4, 12 or 40 μg; value for 40 μg, 70× molar excess) (murine IL-6 (mouse) [2]): 63%; attenuation of IL-6 (100 ng i.v.)-induced STAT3 phosphorylation in mouse kidney after pretreatment with mIL-6-RFP-Fc i.p. for 45 min (4, 12 or 40 μg; value for 40 μg, 70× molar excess) (murine IL-6 (mouse) [2]): 80%; attenuation of IL-6 (100 ng i.v.)-induced STAT3 phosphorylation in mouse liver after pretreatment with mIL-6-RFP-Fc i.p. for 45 min (4, 12 or 40 μg; value for 40 μg, 70× molar excess) (murine IL-6 (mouse) [2]): 12%; stoichiometry N [3]: 2
